Laboratory results reported in patent US20250313644A1 (FUTUREGEN BIOPHARMACEUTICAL BEIJING, published 2025).
Changes are numbered by the printed parent chain.

B1: single-arm antibody 4035 (antibody, human IgG1, kappa, L234A L235A)
heavy: ELQLQESGPGLVKPSETLSLTCAVSGISFNDFHWAWIRQPPGKGLEWIGDINHRGHTSYNPSLKSRVTVSVDTSKNQFSLKLSSVTAADTAVYYCARDYPNFTFDLWGQGTLVTVSSASTKGPSVFPLAPSSKSTSGGTAALGCLVKDYFPEPVTVSWNSGALTSGVHTFPAVLQSSGLYSLSSVVTVPSSSLGTQTYICNVNHKPSNTKVDKKVEPKSCDKTHTCPPCPAPEAAGGPSVFLFPPKPKDTLMISRTPEVTCVVVDVSHEDPEVKFNWYVDGVEVHNAKTKPREEQYNSTYRVVSVLTVLHQDWLNGKEYKCKVSNKALGAPIEKTISKAKGQPREPQVYTLPPCREEMTKNQVSLWCLVKGFYPSDIAVEWESNGQPENNYKTTPPVLDSDGSFFLYSKLTVDKSRWQQGNVFSCSVMHEALHNHYTQKSLSLSPG
light: not shown
chain: DKTHTCPPCPAPEAAGGPSVFLFPPKPKDTLMISRTPEVTCVVVDVSHEDPEVKFNWYVDGVEVHNAKTKPREEQYNSTYRVVSVLTVLHQDWLNGKEYKCKVSNKALGAPIEKTISKAKGQPREPQVCTLPPSREEMTKNQVSLSCAVKGFYPSDIAVEWESNGQPENNYKTTPPVLDSDGSFFLVSKLTVDKSRWQQGNVFSCSVMHEALHNHYTQKSLSLSPG
notes: Single-arm form of 3912; also called M701-4035
B2: single-arm antibody M701-3990 (antibody, human IgG1, kappa, L234A L235A)
heavy: B1 heavy with I27V, N30T, F32Y, S58N, V71I, T103I, F104Y, L106Y
light: not shown
chain: B1 chain
notes: Single-arm form of 4019
B3: single-arm antibody 3900 (antibody, human IgG1, kappa, L234A L235A)
heavy: EVQLQESGPGLVKPSETLSLTCAVSGVSYSDYHWAWIRQPPGKGLEWIGDINHKGKTNYNPSLKSRVTISVDTSKNQFSLKLSSVTAADTAVYYCARDYPNFLFDYWGQGTLVTVSSASTKGPSVFPLAPSSKSTSGGTAALGCLVKDYFPEPVTVSWNSGALTSGVHTFPAVLQSSGLYSLSSVVTVPSSSLGTQTYICNVNHKPSNTKVDKKVEPKSCDKTHTCPPCPAPEAAGGPSVFLFPPKPKDTLMISRTPEVTCVVVDVSHEDPEVKFNWYVDGVEVHNAKTKPREEQYNSTYRVVSVLTVLHQDWLNGKEYKCKVSNKALGAPIEKTISKAKGQPREPQVYTLPPCREEMTKNQVSLWCLVKGFYPSDIAVEWESNGQPENNYKTTPPVLDSDGSFFLYSKLTVDKSRWQQGNVFSCSVMHEALHNHYTQKSLSLSPG
light: not shown
chain: B1 chain
notes: also called M701-3900

Columns and labels:
human TL1A (HuTL1A) [1] = molecular target: T1, human TL1A (HuTL1A) (human, UniProt O95150 57-251, limits assumed, biotin-labelled in some assays (site not stated)); experiment: ELISA: biotin-HuTL1A on streptavidin plate, antibody diluted at pH 7.4, HRP-anti-human Fc, OD450
T1 construct: Expressed in EXPI-293 cells and purified by Ni-NTA (His-tag); Described as a trimeric antigen; also called TL1A antigen; WT
T1 sequence: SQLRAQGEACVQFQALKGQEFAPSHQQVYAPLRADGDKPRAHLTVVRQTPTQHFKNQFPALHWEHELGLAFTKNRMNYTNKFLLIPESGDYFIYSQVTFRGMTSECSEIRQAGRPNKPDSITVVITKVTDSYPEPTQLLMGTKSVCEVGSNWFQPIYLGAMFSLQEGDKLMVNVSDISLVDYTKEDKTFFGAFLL
Protocol: (§1) Corresponding antibodies were added to specific wells, and the antibodies were diluted with sodium dihydrogen phosphate-citrate buffer at pH 7.4, pH 6.0, pH 5.8, or pH 5.6. Binding assay was carried out at room temperature for 30 minutes. After the incubation, the excess antibodies were removed and the wells were washed by PBST. HRP-anti-Human Fc (Sino Biological) was then added into each well and incubated for 30 minutes to detect the bound antibody. The substrate TMB was finally added to develop color for 5-10 minutes. The color development reaction was terminated with 1M sulfuric acid. OD450 nm was recorded on a microplate reader, and the data were processed and fitted by 4 parameter logistic regression.

human TL1A (HuTL1A) [2] = molecular target: T1, human TL1A (HuTL1A); experiment: as above; remark: listed apart in the source
Protocol: as §1

human TL1A (HuTL1A) [3] = molecular target: T1, human TL1A (HuTL1A); experiment: ELISA: biotin-HuTL1A on streptavidin plate, antibody diluted at pH 6.0, HRP-anti-human Fc, OD450
Protocol: as §1

human TL1A (HuTL1A) [4] = molecular target: T1, human TL1A (HuTL1A); experiment: BLI (Gator), His-tagged TL1A on anti-His probe, pH 7.4
Protocol: (§2) Then a serial dilutions of single-arm M701 antibodies and control antibodies were added.

[5] = molecular target: T2, cynomolgus monkey/rhesus monkey TL1A (cynomolgus monkey/rhesus monkey); experiment: as above
T2 construct: also called Cynomolgus/rhesus monkey TL1A
Protocol: as §2

human TL1A (HuTL1A) [6] = molecular target: T1, human TL1A (HuTL1A); experiment: BLI (Gator), biotin-HuTL1A on SA probe, pH 7.4; BLI (Gator), pH 7.4
Protocol: The binding kinetics between monoclonal antibodies and antigens was measured using Gator, a label-free biomolecule interaction analyzer based on the principle of biolayer interference (BLI). […] Then a serial dilutions of single-arm M701 antibodies and control antibodies were added. The antibodies interacted with the antigen captured by the SA probe, and the interaction was analyzed by detecting the signal change of the reflection interference spectrum of the probe surface, and finally the binding kinetics constants of the antibodies were calculated. The kinetic constants of antigen and antibodies were measured at pH 7.4 and 5.6 in sodium dihydrogen phosphate-citrate buffer.

Binder	EC50 (read off the curve) (human TL1A (HuTL1A) [1]) [nM]	EC50 (read off the curve) (human TL1A (HuTL1A) [2]) [nM]	EC50 (read off the curve) (human TL1A (HuTL1A) [3]) [nM]	Kd (human TL1A (HuTL1A) [4]) [nM]	koff (human TL1A (HuTL1A) [4]) [s⁻¹]	kon (human TL1A (HuTL1A) [4]) [M⁻¹ s⁻¹]	Kd [5] [nM]	koff [5] [s⁻¹]	kon [5] [M⁻¹ s⁻¹]	Kd (human TL1A (HuTL1A) [6]) [nM]	koff (human TL1A (HuTL1A) [6]) [s⁻¹]	kon (human TL1A (HuTL1A) [6]) [M⁻¹ s⁻¹]
B1	~0.3	~0.3	~1									
B2	~0.4	~0.4	~1	4.89	0.00214	438000	4.51	0.00208	462000	4.26	0.00168	394000
B3	~0.5	~0.5	~0.9									
